Laboratory results: the supplement of paper PMC7877785
± gives the uncertainty stated by the source.

Assay: self-splicing fitness, log relative to wild type (ln ratio); higher = more splicing; Tetrahymena group I intron in knt gene, E. coli kanamycin selection, DiMSum; sequences stand for … in CUCUCU…GGAGGGAAAAGUUAUCAGGCAUGCACCUGGUAGCUAGUCUUUAAACCAAUAGAUUGCAUCGGUUUAAAAGGCAAGACCGUCAAAUUGCGGGAAAGGGGUCAACAGCCGUUCAGUACCAAGUCUCAGGGGAAACUUUGAGAUGGCCUUGCAAAGGGUAUGGUAAUAAGCUGACGGACAUGGUCCUAACCACGCAGCCAAGUCCUAAGUCAACAGAUCUUCUGUUGAUAUGGAUGCAGUUCACAGACUAAAUGUCGGUCGGGGAAGAUGUAUUCUUCUCAUAAGAUAUAGUCGGACCUCUCCUUAAUGGGAGCUAGCGGAUGAAGUGAUGCAACACUGGAGCCGCUGGGAACUAAUUUGUAUGCGAAAGUAUAUUGAUUAGUUUUGGAGUACUCGUGGUCG
How it was run: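 A randomised library covering all eight P1ex-region intron nucleotides was built with the intron in the knt kanamycin-resistance gene on pET-22b(+) and held in E. coli BL21(DE3). Cells were grown overnight at 37°C or 30°C on LB agar, with or without 25 μg/mL kanamycin, plus 100 μg/mL carbenicillin, 50 μM IPTG and 0.2% rhamnose, and pooled colonies were amplicon-sequenced on an Illumina HiSeq 2500. DiMSum fitness is the error-weighted combination of wild-type-normalised replicate fold changes, kanamycin versus none.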

Sequence	self-splicing fitness (ln) (30 °C)	self-splicing fitness (ln) (37 °C)
GGAAAGCAAUAUUACGUUUC	-3.04 ± 0.21	-2.5 ± 0.28
UAUAAGCAAUAUUACGCAUU	-2.15 ± 0.21	-0.414 ± 0.14
UGGAAGCAAUAUUACGUACG	-0.898 ± 0.11	0.202 ± 0.13
GCAAAGCAAUAUUACGAAGG	-2 ± 0.14	-0.499 ± 0.17
ACAAAGCAAUAUUACGCCGC	-3.43 ± 0.31	-1.52 ± 0.28
GACAAGCAAUAUUACGUUCA	-1.21 ± 0.074	-0.263 ± 0.072
AUUGAGCAAUAUUACGAAUU	-2.85 ± 0.23	-1.71 ± 0.24
UGGAAGCAAUAUUACGACCA	-0.871 ± 0.18	-0.92 ± 0.21
CUCAAGCAAUAUUACGAGGA	-1.9 ± 0.13	-1.66 ± 0.13
UAACAGCAAUAUUACGUUAU	-3.22 ± 0.16	-2.96 ± 0.23
UCUAAGCAAUAUUACGUGAG	-1.32 ± 0.074	0.269 ± 0.096
GUGUAGCAAUAUUACGCACU	-2.59 ± 0.41	-2.13 ± 0.33
AUAUAGCAAUAUUACGGACG	-2.09 ± 0.16	-1.07 ± 0.19
UGCGAGCAAUAUUACGCGGC	-3.44 ± 0.33	-3.46 ± 0.46
GCACAGCAAUAUUACGAUGC	-3.17 ± 0.2	-1.88 ± 0.17
GUCGAGCAAUAUUACGAUAU	-1.44 ± 0.13	-0.298 ± 0.17
GACAAGCAAUAUUACGCAAA	-2.04 ± 0.13	-1.81 ± 0.12

Sequence	self-splicing fitness (ln) (30 °C)	self-splicing fitness (ln) (37 °C)
CGUAAGCAAUAUUACGAAGC	-2.95 ± 0.23	-2.73 ± 0.26
AACCAGCAAUAUUACGGUAA	-0.741 ± 0.051	-0.682 ± 0.058
CUCGAGCAAUAUUACGAGAG	-1.71 ± 0.28	–
GUAUAGCAAUAUUACGCACG	-1.99 ± 0.19	-0.994 ± 0.3
AAAUAGCAAUAUUACGUUCG	-1.17 ± 0.088	-0.371 ± 0.13
CACGAGCAAUAUUACGAGGC	-3.19 ± 0.26	-1.81 ± 0.24
UAGAAGCAAUAUUACGCGGG	-2.4 ± 0.14	-1.1 ± 0.13
CCCAAGCAAUAUUACGCUAU	-3.85 ± 0.29	-3.13 ± 0.31
GUCAAGCAAUAUUACGGAAC	-3.13 ± 0.24	-3.19 ± 0.21
UGGGAGCAAUAUUACGUCGU	-2.14 ± 0.2	-2 ± 0.46
ACCCAGCAAUAUUACGGGAA	-0.235 ± 0.044	-0.102 ± 0.055
CACUAGCAAUAUUACGGGAA	-2.2 ± 0.18	-2.29 ± 0.17
AGCGAGCAAUAUUACGCAAC	-3.6 ± 0.27	-2.63 ± 0.21
CCAUAGCAAUAUUACGAUAA	–	-3.15 ± 0.4
AGGAAGCAAUAUUACGACAA	-1.66 ± 0.12	-1.49 ± 0.14
AACAAGCAAUAUUACGGUAC	-3.04 ± 0.16	-1.99 ± 0.18
GCUAAGCAAUAUUACGAGCA	-1.72 ± 0.14	-1.03 ± 0.13
